From patent publication US20260166158A1, “HSP90-BINDING CONJUGATES AND FORMULATIONS THEREOF” (Fusion Pharmaceuticals Inc., priority 2019, published 2026)

Tested on: NCI-H460 tumor-bearing mice (lung cancer)
Assay: Biodistribution: lutetium accumulation in tumor, plasma and healthy tissues by ICP-MS
Assay type: in vivo
Details: 24 h; for Kidney uptake, % ID/g 24 h / Liver uptake, % ID/g 24 h / Plasma, % ID/g 24 h / Tumor uptake, % ID/g, 24 h: second table
Protocol: Lutetium accumulation was measured in tumor, plasma and healthy tissues of NCI-H460 tumor-bearing mice (lung cancer). NCJ-H460 tumor bearing mice were dosed with 0.5 mg/kg of lutetium conjugates. At the time points indicated, mice were sacrificed and tumor, liver, kidneys and plasma were taken. All tissues were analyzed for lutetium content by ICP-MS, and lutetium uptake in % ID/g determined by the following equation: […]
Biodistribution at 24 h and Tumor/Kidney ratio (T/K), Tumor/Liver ratio (T/L), Tumor/Plasma ratio (T/P) are give in the table below.

SMILES | T/K (Tumor/Kidney ratio) | T/L (Tumor/Liver ratio) | T/P (Tumor/Plasma ratio) | Kidney uptake, % ID/g 24 h [% ID/g] | Liver uptake, % ID/g 24 h [% ID/g] | Plasma, % ID/g 24 h [% ID/g] | Tumor uptake, % ID/g, 24 h [% ID/g]
CCNC(=O)c1nnc(-c2cc(C(C)C)c(O)cc2O)n1-c1ccc(CN2CCN(C(=O)CCOCCOCCOCCOCCNC(=O)CN3CCN4CCN5CCN6CC(=O)O[C]6(C3)[Lu]([O]C(=O)C4)[O]C(=O)C5)CC2)cc1 (stereo not shown) [CMP1] | 1.28 | 1.92 | 7.68 | 0.91 | 0.607 | 0.152 | 1.167
CCNC(=O)c1nnc(-c2cc(C(C)C)c(O)cc2O)n1-c1ccc(OC2CCN(C(=O)CCOCCOCCOCCOCCNC(=O)CC[C@@H](C(=O)O)N(CC)CCN3CCN4CCN(C)CC(=O)[O][Lu]([O]C(=O)C4)[O]C(=O)C3)CC2)cc1 [CMP2] | 2.12 | 1.98 | 2.51 | 0.438 | 0.469 | 0.369 | 0.927
CCNC(=O)c1nnc(-c2cc(C(C)C)c(O)cc2O)n1-c1ccc(CC2CCN(C(=O)CCOCCOCCOCCOCCOCCOCCOCCOCCOCCOCCOCCOCCNC(=O)[C@H](CCCCNC(=O)CCCc3ccc(I)cc3)NC(=O)CN3CCN4CCN5CCN(CC3)CC(=O)[O][Lu]([O]C(=O)C4)[O]C(=O)C5)CC2)cc1 [CMP3] | 3.38 | 2.39 | 0.84 | 5.13 | 7.26 | 20.57 | 17.36
CCNC(=O)c1nnc(-c2cc(C(C)C)c(O)cc2O)n1-c1ccc(CC2CCN(C(=O)CCOCCOCCOCCOCCNC(=O)[C@H](CCCCNC(=O)CCCc3ccc(I)cc3)NC(=O)CN(CC)CCN3CCN4CCN(C)CC(=O)[O][Lu]([O]C(=O)C4)[O]C(=O)C3)CC2)cc1 [CMP4] | 2.53 | 3.55 | 0.87 | 3.24 | 2.31 | 9.48 | 8.21
CCNC(=O)c1nnc(-c2cc(C(C)C)c(O)cc2O)n1-c1ccc(OC2CCN(C(=O)CCOCCOCCOCCOCCOCCOCCOCCOCCOCCOCCOCCOCCNC(=O)[C@H](CCCCNC(=O)CCCc3ccc(I)cc3)NC(=O)CN3CCN4CCN5CCN(CC3)CC(=O)[O][Lu]([O]C(=O)C4)[O]C(=O)C5)CC2)cc1 [CMP5] | 3.05 | 3.17 | 1.42 | 3.95 | 3.80 | 8.48 | 12.05
CCNC(=O)c1nnc(-c2cc(C(C)C)c(O)cc2O)n1-c1ccc(CC2CCN(C(=O)CCOCC(COCCC(=O)N3CCC(Cc4ccc(-n5c(C(=O)NCC)nnc5-c5cc(C(C)C)c(O)cc5O)cc4)CC3)NC(=O)CC[C@H](C(=O)O)N3CCN4CCN5CCN(CC3)CC(=O)[O][Lu]([O]C(=O)C5)[O]C(=O)C4)CC2)cc1 [CMP8] | 2.01 | 1.67 | 4.01 | 2.91 | 3.50 | 1.46 | 5.86
CCNC(=O)c1nnc(-c2cc(C(C)C)c(O)cc2O)n1-c1ccc(CC2CCN(C(=O)CCC(=O)N[C@@H](CCCCNC(=O)CN3CCN4CCN5CCN(CC3)CC(=O)[O][Lu]([O]C(=O)C4)[O]C(=O)C5)C(=O)N3CCC(Cc4ccc(-n5c(C(=O)NCC)nnc5-c5cc(C(C)C)c(O)cc5O)cc4)CC3)CC2)cc1 [CMP24] | 2.58 | 1.07 | 0.89 | 4.81 | 11.53 | 13.96 | 12.39
CCNC(=O)c1nnc(-c2cc(C(C)C)c(O)cc2O)n1-c1ccc(CC2CCN(C(=O)C[C@H](NC(=O)CN3CCN4CCN5CCN(CC3)CC(=O)[O][Lu]([O]C(=O)C4)[O]C(=O)C5)C(=O)N[C@H](C)C(=O)N3CCC(Cc4ccc(-n5c(C(=O)NCC)nnc5-c5cc(C(C)C)c(O)cc5O)cc4)CC3)CC2)cc1 [CMP27] | 1.13 | 0.50 | 1.53 | 6.66 | 14.98 | 4.89 | 7.50
CCNC(=O)c1nnc(-c2cc(C(C)C)c(O)cc2O)n1-c1ccc(CC2CCN(C(=O)C[C@H](NC(=O)CC[C@H](C(=O)O)N3CCN4CCN5CCN(CC3)CC(=O)[O][Lu]([O]C(=O)C5)[O]C(=O)C4)C(=O)N[C@H](C)C(=O)N3CCC(Cc4ccc(-n5c(C(=O)NCC)nnc5-c5cc(C(C)C)c(O)cc5O)cc4)CC3)CC2)cc1 [CMP28] | 0.90 | 0.79 | 1.13 | 8.90 | 10.10 | 7.11 | 8.01
CCNC(=O)c1nnc(-c2cc(C(C)C)c(O)cc2O)n1-c1ccc(C2CN(C(=O)CCOCCOCCOCCOCCNC(=O)CN3CCN4CCN5CCN(CC3)CC(=O)[O][Lu]([O]C(=O)C4)[O]C(=O)C5)C2)cc1 [CMP29] | 2.19 | 2.23 | 4.08 | 1.12 | 1.10 | 0.60 | 2.45
CCNC(=O)c1nnc(-c2cc(C(C)C)c(O)cc2O)n1-c1ccc(C2CCN(C(=O)CCOCCOCCOCCOCCNC(=O)CN3CCN4CCN5CCN(CC3)CC(=O)[O][Lu]([O]C(=O)C4)[O]C(=O)C5)CC2)cc1 [CMP30] | 2.57 | 0.62 | 2.75 | 0.76 | 3.16 | 0.71 | 1.95
CCNC(=O)c1nnc(-c2cc(C(C)C)c(O)cc2O)n1-c1ccc(CC2CCN(C(=O)CCOCCOCCOCCOCCNC(=O)CN3CCN4CCN5CCN(CC3)CC(=O)[O][Lu]([O]C(=O)C4)[O]C(=O)C5)CC2)cc1 [CMP31] | 5.00 | 2.30 | 5.19 | 0.84 | 1.83 | 0.81 | 4.20
CCNC(=O)c1nnc(-c2cc(C(C)C)c(O)cc2O)n1-c1ccc(C2CN(C(=O)CCOCCOCCOCCOCCOCCOCCOCCOCCOCCOCCOCCOCCNC(=O)CN3CCN4CCN5CCN(CC3)CC(=O)[O][Lu]([O]C(=O)C4)[O]C(=O)C5)C2)cc1 [CMP32] | 2.15 | 5.26 | 6.81 | 1.17 | 0.48 | 0.37 | 2.52
